Results taken from the Human Domainome abundance scans (Beltran et al. 2025).
± gives the uncertainty stated by the source.

B1: SH3 and PX domain-containing protein 2B, residues 155 to 209; numbered along this chain, A1X283 (parent)
chain: EQYVVVANYQKQESSEISLSVGQVVDIIEKNESGWWFVSTAEEQGWVPATCLEGQ

Variants of: B1
Test: abundance fitness (aPCA) (normalised: wild type 0, dead -1); higher = more abundant; growth selection in yeast, the domain comes from the species named
Conditions: Homo sapiens

Variant	abundance fitness
EQYVVVANYQKQESSEISLSVGQVVDIIEKCESGWWFVSTAEEQGWVPATCLEGQ [N31C]	0.035 ± 0.087
EQYVVVANYQKQESSEISLSVGQVVDIIEKDESGWWFVSTAEEQGWVPATCLEGQ [N31D]	-0.116 ± 0.077
EQYVVVANYQKQESSEISLSVGQVVDIIEKAESGWWFVSTAEEQGWVPATCLEGQ [N31A]	-0.114 ± 0.075
EQYVVVANYQKQESSEISLSVGQVVDIIEKIESGWWFVSTAEEQGWVPATCLEGQ [N31I]	-0.401 ± 0.11
EQYVVVANYQKQESSEISLSVGQVVDIIEKHESGWWFVSTAEEQGWVPATCLEGQ [N31H]	-0.095 ± 0.13
EQYVVVANYQKQESSEISLSVGQVVDIIEKFESGWWFVSTAEEQGWVPATCLEGQ [N31F]	-0.259 ± 0.12
EQYVVVANYQKQESSEISLSVGQVVDIIEKEESGWWFVSTAEEQGWVPATCLEGQ [N31E]	-0.122 ± 0.094
EQYVVVANYQKQESSEISLSVGQVVDIINKNESGWWFVSTAEEQGWVPATCLEGQ [E29N]	0.021 ± 0.16
EQYVVVANYQKQESSEISLSVGQVVDIIAKNESGWWFVSTAEEQGWVPATCLEGQ [E29A]	-0.056 ± 0.08
EQYVVVANYQKQESSEISLSVGQVVDIIVKNESGWWFVSTAEEQGWVPATCLEGQ [E29V]	-0.258 ± 0.073
EQYVVVANYQKQESSEISLSVGQVVDIIPKNESGWWFVSTAEEQGWVPATCLEGQ [E29P]	-0.974 ± 0.26
EQYVVVANYQKQESSEISLSVGQVVDIILKNESGWWFVSTAEEQGWVPATCLEGQ [E29L]	-0.123 ± 0.088
EQYVVVANYQKQESSEISLSVGQVVDIIFKNESGWWFVSTAEEQGWVPATCLEGQ [E29F]	-0.691 ± 0.36
EQYVVVANYQKQESSEISLSVGQVVDIIQKNESGWWFVSTAEEQGWVPATCLEGQ [E29Q]	0.05 ± 0.11
EQYVVVANYQKQESSEISLSVGQVVDIIIKNESGWWFVSTAEEQGWVPATCLEGQ [E29I]	0.133 ± 0.17
EQYVVVANYQKQESSEISLSVGQVVDIIYKNESGWWFVSTAEEQGWVPATCLEGQ [E29Y]	-0.502 ± 0.18
EQYVVVANYQKQESSEISLSVGQVVDIISKNESGWWFVSTAEEQGWVPATCLEGQ [E29S]	-0.114 ± 0.07
EQYVVVANYQKQESSEISLSVGQVVDIIRKNESGWWFVSTAEEQGWVPATCLEGQ [E29R]	0.084 ± 0.079
EQYVVVANYQKQESSEISLSVGQVVDIIWKNESGWWFVSTAEEQGWVPATCLEGQ [E29W]	-0.097 ± 0.088
EQYVVVANYQKQESSEISLSVGQVVDIITKNESGWWFVSTAEEQGWVPATCLEGQ [E29T]	-0.037 ± 0.093
EQYVVVANYQKQESSEISLSVGQVVDIIMKNESGWWFVSTAEEQGWVPATCLEGQ [E29M]	-0.417 ± 0.12
EQYVVVANYQKQESSEISLSVGQVVDIIGKNESGWWFVSTAEEQGWVPATCLEGQ [E29G]	-0.19 ± 0.077
EQYVVVANYQKQESSEISLSVGQVVDIIDKNESGWWFVSTAEEQGWVPATCLEGQ [E29D]	-0.104 ± 0.2
EQYVVVANYQKQESSEISLSVGQVVDIICKNESGWWFVSTAEEQGWVPATCLEGQ [E29C]	-0.205 ± 0.082

Variant	abundance fitness
EQYVVVANYQKQESSEISLSVGQVVDIIHKNESGWWFVSTAEEQGWVPATCLEGQ [E29H]	0.056 ± 0.28
EQYVVVANYQKQESSEISLSVGQVVDIIKKNESGWWFVSTAEEQGWVPATCLEGQ [E29K]	0.022 ± 0.11
EQYVVVANYQKQESSEISLSVGQVVDIVEKNESGWWFVSTAEEQGWVPATCLEGQ [I28V]	0.027 ± 0.073
EQYVVVANYQKQESSEISLSVGQVVDIQEKNESGWWFVSTAEEQGWVPATCLEGQ [I28Q]	-0.042 ± 0.15
EQYVVVANYQKQESSEISLSVGQVVDINEKNESGWWFVSTAEEQGWVPATCLEGQ [I28N]	-0.229 ± 0.17
EQYVVVANYQKQESSEISLSVGQVVDIPEKNESGWWFVSTAEEQGWVPATCLEGQ [I28P]	-0.822 ± 0.19
EQYVVVANYQKQESSEISLSVGQVVDIYEKNESGWWFVSTAEEQGWVPATCLEGQ [I28Y]	-0.462 ± 0.21
EQYVVVANYQKQESSEISLSVGQVVDIMEKNESGWWFVSTAEEQGWVPATCLEGQ [I28M]	-0.125 ± 0.12
EQYVVVANYQKQESSEISLSVGQVVDIREKNESGWWFVSTAEEQGWVPATCLEGQ [I28R]	-0.211 ± 0.073
EQYVVVANYQKQESSEISLSVGQVVDISEKNESGWWFVSTAEEQGWVPATCLEGQ [I28S]	-0.337 ± 0.087
EQYVVVANYQKQESSEISLSVGQVVDITEKNESGWWFVSTAEEQGWVPATCLEGQ [I28T]	-0.116 ± 0.11
EQYVVVANYQKQESSEISLSVGQVVDIIEQNESGWWFVSTAEEQGWVPATCLEGQ [K30Q]	-0.027 ± 0.15
EQYVVVANYQKQESSEISLSVGQVVDIIEYNESGWWFVSTAEEQGWVPATCLEGQ [K30Y]	0.029 ± 0.28
EQYVVVANYQKQESSEISLSVGQVVDIIETNESGWWFVSTAEEQGWVPATCLEGQ [K30T]	-0.008 ± 0.15
EQYVVVANYQKQESSEISLSVGQVVDIIEWNESGWWFVSTAEEQGWVPATCLEGQ [K30W]	-0.58 ± 0.16
EQYVVVANYQKQESSEISLSVGQVVDIIEINESGWWFVSTAEEQGWVPATCLEGQ [K30I]	-0.276 ± 0.14
EQYVVVANYQKQESSEISLSVGQVVDIIEDNESGWWFVSTAEEQGWVPATCLEGQ [K30D]	-0.767 ± 0.18
EQYVVVANYQKQESSEISLSVGQVVDIIELNESGWWFVSTAEEQGWVPATCLEGQ [K30L]	-0.548 ± 0.16
EQYVVVANYQKQESSEISLSVGQVVDIIEPNESGWWFVSTAEEQGWVPATCLEGQ [K30P]	-0.495 ± 0.15
EQYVVVANYQKQESSEISLSVGQVVDIIEENESGWWFVSTAEEQGWVPATCLEGQ [K30E]	-0.17 ± 0.14
EQYVVVANYQKQESSEISLSVGQVVDIIEVNESGWWFVSTAEEQGWVPATCLEGQ [K30V]	-0.273 ± 0.076
EQYVVVANYQKQESSEISLSVGQVVDIIERNESGWWFVSTAEEQGWVPATCLEGQ [K30R]	-0.049 ± 0.077
EQYVVVANYQKQESSEISLSVGQVVDIIEGNESGWWFVSTAEEQGWVPATCLEGQ [K30G]	-0.398 ± 0.08
EQYVVVANYQKQESSEISLSVGQVVDIIEFNESGWWFVSTAEEQGWVPATCLEGQ [K30F]	-0.357 ± 0.11
